These results are taken from the supplement of paper PMC9170038.

In the data set the test system is K4 kissing-loop RNA reporter. Description: apparent KD of K4 kissing-loop reporter; higher = weaker reporter binding. Particulars: Eterna round: R107. As to the method: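 RNA-MaP round R107: designed RNA switches with theophylline, tryptophan, arginine or FMN aptamers are transcribed on-chip within common flanks. They are titrated with a labelled K4 kissing-loop RNA reporter in RNA-MaP buffer (100 mM Tris pH 7.5, 80 mM KCl, 4 mM MgCl2), without ligand or with the indicated ligand. Median apparent KD per design.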

[1] abbreviates: input ligand: theophylline 20 uM.
[2] abbreviates: input ligand: tryptophan 2.4 mM.
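Also: bound reporter read as fluorescence of individual clusters on recovered sequencing chips by microscopy, with normalized cluster intensities fitted with a binding model.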

Regarding “GAGAAUCUAAUUGAUACCAGAGUAAGAACCAGUGAUGUUGGAAGAUUCCCUAAUAAAUAACUCCCUUGGCAGCGGAAGAGAAUAG [Totally accidental 2]”, the “apparent KD of K4 kissing-loop reporter” value (input ligand: FMN 200 uM) is 142 nM; the “apparent KD of K4 kissing-loop reporter” value (input ligand: arginine 13.2 mM) turned out to be 230 nM; the “apparent KD of K4 kissing-loop reporter” value (input ligand: none) came out at 176 nM; the “apparent KD of K4 kissing-loop reporter” value under setting [1] turned out to be 327 nM; the “apparent KD of K4 kissing-loop reporter” value under setting [2] amounted to 172 nM.

On to “GAGGUACAGGCGGCCGCCACUAGUGAUGUUAGUGAUGUUAGAUAAAGUAUAUAUCGGCGUGUAGAUAGGACCGGGCCUGAUGGAG [ssrykmullin]”, for which the “apparent KD of K4 kissing-loop reporter” value runs as follows: (input ligand: FMN 200 uM) 49 nM; (input ligand: arginine 13.2 mM) 33.6 nM; (input ligand: none) 60 nM; under setting [1], 42 nM; under setting [2], 53.9 nM.

In the case of “GAGGUACAGGCGGCCGCCACUAGUGAUGUUAGUGAUGUUUGAUACUGUAUAUAUCGGCGUGUAGAUAGGACCGGGCCUGAUGGAG [znmkmullin]”, the “apparent KD of K4 kissing-loop reporter” value (input ligand: FMN 200 uM) amounted to 122 nM; the “apparent KD of K4 kissing-loop reporter” value (input ligand: arginine 13.2 mM) was 78.7 nM; the “apparent KD of K4 kissing-loop reporter” value (input ligand: none) is 100 nM; the “apparent KD of K4 kissing-loop reporter” value under setting [1] is 109 nM; the “apparent KD of K4 kissing-loop reporter” value under setting [2] came to 91.8 nM.

Regarding “GAUGAUCGCGCGGCCGCCACUGGUCAGUGAUGUUGACAUUAAUGCGCCGAGUAGUAACGGCGCAACAGGACCGGGCGCGAUGUAG [#11 K4 Tryptophan B Same State]”, the “apparent KD of K4 kissing-loop reporter” value worked out at 165 nM (input ligand: FMN 200 uM); 160 nM (input ligand: arginine 13.2 mM); 143 nM (input ligand: none); 185 nM under setting [1]; 171 nM under setting [2].

As to “GCAACAUUGGCAGGAUAUCCUUCUCAGUGAUGUUGAGGGUUCAGCUAACGAAAGUUAGUUGUACCAGGAGAAGGGCUAAUGUUGC [Omei KL FMN B SS A v7]”, the “apparent KD of K4 kissing-loop reporter” value by setting is: (input ligand: FMN 200 uM) 416 nM; (input ligand: arginine 13.2 mM) 815 nM; (input ligand: none) 1420 nM; under setting [1], 906 nM; under setting [2], 1440 nM.

Regarding “GCAACAUUGGGAGGAUAUCAUUCUGAGUGAUGUUCAGGGUUCAGCUAACGAAAGUUAGUUGUACCAUGAGAAGGUCUAAUGUUGC [Omei KL FMN B SS A v6]”, the “apparent KD of K4 kissing-loop reporter” value (input ligand: FMN 200 uM) came to 342 nM; the “apparent KD of K4 kissing-loop reporter” value (input ligand: arginine 13.2 mM) was found to be 975 nM; the “apparent KD of K4 kissing-loop reporter” value (input ligand: none) turned out to be 1180 nM; the “apparent KD of K4 kissing-loop reporter” value under setting [1] was 1020 nM; the “apparent KD of K4 kissing-loop reporter” value under setting [2] was determined as 1150 nM.

For the sequence “GCAAGGCUACAAGGAUAUGCGCGAACCUACCGCCAAGCGGCUACCGGUGAGUCAGUGAUGUUGGCUGCAGAAGGUGUGAUUGAGC [theeternabot_sameState_KL_FMN_B_45]”, the “apparent KD of K4 kissing-loop reporter” value came out at 383 nM (input ligand: FMN 200 uM); 301 nM (input ligand: arginine 13.2 mM); 365 nM (input ligand: none); 380 nM under setting [1]; 334 nM under setting [2].

In the case of “GCACUACAAUAAGGAUAUCAUAAAAUGGAGAGCGAGUGAUGUUCGCAGAGACACCUAUUUUUCCUAUGAGAAGGUAUUAACGCCG [theeternabot_sameState_KL_FMN_B_40]”, the “apparent KD of K4 kissing-loop reporter” value was found to be 97.8 nM (input ligand: FMN 200 uM); 99 nM (input ligand: arginine 13.2 mM); 120 nM (input ligand: none); 161 nM under setting [1]; 93.2 nM under setting [2].

In the case of “GCACUCCAUCGGACGUAAGUGAUGUUUACCCGAGGACCGGUACGGCCGCCACUCGACCGUGCAUAACCAAAUCAAAUAGCUUCCG [theeternabot_exclusion_KL_Trp_A_31]”, the “apparent KD of K4 kissing-loop reporter” value (input ligand: FMN 200 uM) amounted to 143 nM; the “apparent KD of K4 kissing-loop reporter” value (input ligand: arginine 13.2 mM) came to 127 nM; the “apparent KD of K4 kissing-loop reporter” value (input ligand: none) is 138 nM; the “apparent KD of K4 kissing-loop reporter” value under setting [1] stood at 120 nM; the “apparent KD of K4 kissing-loop reporter” value under setting [2] worked out at 221 nM.

Turning to “GCAGUCAAUCAACCACGAAAGUGGAUGGAUACCAGCCCGAAACCGGGCCCUUGGCAGCCAGUGAUGUUGGAAGACUGCUUUAAAA [#SwitchBubble 15 #K4Late]”, the “apparent KD of K4 kissing-loop reporter” value is, setting by setting: (input ligand: FMN 200 uM) 974 nM; (input ligand: arginine 13.2 mM) 256 nM; (input ligand: none) 607 nM; under setting [1], 219 nM; under setting [2], 337 nM.

Regarding “GCAGUGAUGUUGCAAAAUGUCUGUGGUAGUCGAGGACCGGUACGGCCGCCACUCGGUGAGAACCUGCUAAUACAUCGAUAAGUGA [IX]”, the “apparent KD of K4 kissing-loop reporter” value runs as follows: (input ligand: FMN 200 uM) 706 nM; (input ligand: arginine 13.2 mM) 580 nM; (input ligand: none) 627 nM; under setting [1], 810 nM; under setting [2], 666 nM.

For “GCAGUGAUGUUGCGCGGGUACGGUAGAGUGCGAGGACCGGUACGGCCGCCACUCGUACGGAACUGGCUAAUAUAUGGAUAGGUGA [V]”, the “apparent KD of K4 kissing-loop reporter” value reads like this: (input ligand: FMN 200 uM) 496 nM; (input ligand: arginine 13.2 mM) 318 nM; (input ligand: none) 446 nM; under setting [1], 406 nM; under setting [2], 243 nM.

Turning to “GCAGUGAUGUUGCUGAUGUACAGUGGGAUACGAGGACCGGUACGGCCGCCACUCGUACAGAACUUGUUAAUACAUCGAUAGGUGA [XIII]”, the “apparent KD of K4 kissing-loop reporter” value is 702 nM (input ligand: FMN 200 uM); 759 nM (input ligand: arginine 13.2 mM); 880 nM (input ligand: none); 837 nM under setting [1]; 564 nM under setting [2].

“GCAUCCUAUGCAGGAUAUUAGCAUUUGAGUGAUGUUCAGACUAGCGAAAGCUAGUCAAUUGCUGGUUAAGAAGGGCAUAGGAUGC”: the “apparent KD of K4 kissing-loop reporter” value is, setting by setting: (input ligand: FMN 200 uM) 891 nM; (input ligand: arginine 13.2 mM) 750 nM; (input ligand: none) 971 nM; under setting [1], 902 nM; under setting [2], 689 nM.

“GCCGUACGCAUGGAUACCAGCAAGCAUAGCAGGAAACUGCUAUGCACCAGUGAUGUUGGAUGCCCUUGGCAGCCAUGCGUACGGC”: the “apparent KD of K4 kissing-loop reporter” value (input ligand: FMN 200 uM) was found to be 1250 nM; the “apparent KD of K4 kissing-loop reporter” value (input ligand: arginine 13.2 mM) worked out at 754 nM; the “apparent KD of K4 kissing-loop reporter” value (input ligand: none) stood at 926 nM; the “apparent KD of K4 kissing-loop reporter” value under setting [1] came to 439 nM; the “apparent KD of K4 kissing-loop reporter” value under setting [2] amounted to 1110 nM.

As to “GCCGUACGCAUGGAUACCAGCAUGCAUAUUAGCUAGUGAUGUUAGCGCUAUGCGAUGCUAUGCCCUUGGCAGCCAUGCGUACGGC”, the “apparent KD of K4 kissing-loop reporter” value runs as follows: (input ligand: FMN 200 uM) 124 nM; (input ligand: arginine 13.2 mM) 108 nM; (input ligand: none) 127 nM; under setting [1], 247 nM; under setting [2], 132 nM.
